The chains are these.
B1: purified budding yeast tubulin heterodimer, Tub1-WT (internal 6X-His) with Tub2 [S. cerevisiae] / GST-TOG1/2 (the two TOG domains of Stu2 fused to a GST tag, Stu2 1-590) [S. cerevisiae] (parent complex)
chain 1: MREVISINVGQAGCQIGNACWELYSLEHGIKPDGHLEDGLSKPKGGEEGFSTFFHETGYGKFVPRAIYVDLEPNVIDEVRNGPYKDLFHPEQLISGKEDAANNYARGHYTVGREILGDVLDRIRKLADQCDGLQGFLFTHSLGGGTGSGLGSLLLEELSAEYGKKSKLEFAVYPAPQVSTSVVEPYNTVLTTHTTLEHADCTFMVDNEAIYDMCKRNLDIPRPSFANLNNLIAQVVSSVTASLRFDGSLNVDLNEFQTNLVPYPRIHFPLVSYSPVLSKSKAFHESNSVSEITNACFEPGNQMVKCDPRDGKYMATCLLYRGDVVTRDVQRAVEQVKNKKTVQLVDWCPTGFKIGICYEPPTATPNSQLATVDRAVCMLSNTTSIAEAWKRIDRKFDLMYAKRAFVHWYVGEGMEEGEFTEAREDLAALERDYIEVGADSYAEEEEF
chain 2: MREIIHISTGQCGNQIGAAFWETICGEHGLDFNGTYHGHDDIQKERLNVYFNEASSGKWVPRSINVDLEPGTIDAVRNSAIGNLFRPDNYIFGQSSAGNVWAKGHYTEGAELVDSVMDVIRREAEGCDSLQGFQITHSLGGGTGSGMGTLLISKIREEFPDRMMATFSVLPSPKTSDTVVEPYNATLSVHQLVEHSDETFCIDNEALYDICQRTLKLNQPSYGDLNNLVSSVMSGVTTSLRYPGQLNSDLRKLAVNLVPFPRLHFFMVGYAPLTAIGSQSFRSLTVPELTQQMFDAKNMMAAADPRNGRYLTVAAFFRGKVSVKEVEDEMHKVQSKNSDYFVEWIPNNVQTAVCSVAPQGLDMAATFIANSTSIQELFKRVGDQFSAMFKRKAFLHWYTSEGMDELEFSEAESNMNDLVSEYQQYQEATVEDDEEVDENGDFGAPQNQDEPITENFE
chain 3: MSGEEEVDYTTLPLEERLTYKLWKARLEAYKELNQLFRNSVGDISRDDNIQIYWRDPTLFAQYITDSNVVAQEQAIVALNSLIDAFASSSLKNAHNITLISTWTPLLVEKGLTSSRATTKTQSMSCILSLCGLDTSITQSVELVIPFFEKKLPKLIAAAANCVYELMAAFGLTNVNVQTFLPELLKHVPQLAGHGDRNVRSQTMNLIVEIYKVTGNNSDLLEEILFKKLKPIQVKDLHKLFAKVGDEPSSSKMLFEWEKRELEKKRSQEEEARKRKSILSNDEGEYQIDKDGDTLMGMETDMPPSKQQSGVQIDTFSMLPEETILDKLPKDFQERITSSKWKDRVEALEEFWDSVLSQTKKLKSTSQNYSNLLGIYGHIIQKDANIQAVALAAQSVELICDKLKTPGFSKDYVSLVFTPLLDRTKEKKPSVIEAIRKALLTICKYYDPLASSGRNEDMLKDILEHMKHKTPQIRMECTQLFNASMKEEKDGYSTLQRYLKDEVVPIVIQIVNDTQPAIRTIGFESFAILIKIFGMNTFVKTLEHLDNLKRKKIEETVKTLPNFSIASGSTHSTIETNKQTGPMENKFLLK

Variants of B1 are the subject of this test. Kind of test: in vitro binding assay: unbound tubulin in supernatant after GST-TOG1/2 incubation, α-tubulin western blot; highest GST-TOG1/2 concentration, est. ~5000 nM read from x axis; low constant tubulin concentration; n=3 experiments; parent: 14; read off a plot. On the technique in general: A western blot detects proteins with antibodies after separation by electrophoresis.
Consider chain 1 V410I, for which the screen value is roughly 71%.

chain 1 V410A: the screen value was roughly 85%.

The values above are taken from paper PMC9236607, “TUBA1A tubulinopathy mutants disrupt neuron morphogenesis and override XMAP215/Stu2 regulation of microtubule dynamics” (eLife, 2022).
